# Data: patent US20190367606A1 (CENTRE FOR DRUG RESEARCH AND DEVELOPMENT, published 2019)
# Tests used:
# [1] = target: T1, human podocalyxin (human, UniProt O00592 23-558); experiment: flow cytometry, control, 1:5, MDA-MB-231 cells
# T1 construct: also called hPodo; hPodocalyxin
# T1 sequence: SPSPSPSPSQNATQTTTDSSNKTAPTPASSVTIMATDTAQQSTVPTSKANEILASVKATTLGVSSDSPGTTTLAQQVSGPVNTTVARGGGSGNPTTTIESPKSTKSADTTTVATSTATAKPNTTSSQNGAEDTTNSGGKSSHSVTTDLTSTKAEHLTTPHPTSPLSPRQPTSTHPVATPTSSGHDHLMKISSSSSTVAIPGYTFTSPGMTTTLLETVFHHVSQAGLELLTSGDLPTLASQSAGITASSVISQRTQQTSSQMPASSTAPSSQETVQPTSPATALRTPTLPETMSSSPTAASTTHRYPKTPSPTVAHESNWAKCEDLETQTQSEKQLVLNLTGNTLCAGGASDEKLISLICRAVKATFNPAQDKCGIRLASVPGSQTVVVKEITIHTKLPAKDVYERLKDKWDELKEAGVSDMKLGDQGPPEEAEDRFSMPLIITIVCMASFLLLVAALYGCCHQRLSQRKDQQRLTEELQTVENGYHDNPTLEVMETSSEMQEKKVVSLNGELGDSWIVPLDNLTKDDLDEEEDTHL
# [2] = target: T1, human podocalyxin; experiment: flow cytometry, control, 2:15 (so in the source), MDA-MB-231 cells
# [3] = target: T1, human podocalyxin; experiment: flow cytometry, control, 1:125, MDA-MB-231 cells
# [4] = target: T1, human podocalyxin; experiment: flow cytometry, control, 2:15 (so in the source), hPodo/MDA-MB-231 transient transfectants
# [5] = target: T1, human podocalyxin; experiment: flow cytometry, control, Neat, MDA-MB-231 cells
# [6] = target: T1, human podocalyxin; experiment: flow cytometry, control, 1:125, hPodo/MDA-MB-231 transient transfectants
# [7] = target: T1, human podocalyxin; experiment: flow cytometry, control, Neat, hPodo/MDA-MB-231 transient transfectants
# [8] = target: T1, human podocalyxin; experiment: flow cytometry, control, 1:5, hPodo/MDA-MB-231 transient transfectants
# [9] = target: T1, human podocalyxin; experiment: cross competition FACS, MDA-MB-231 cells; row antibody unlabelled 25 ug/mL first; competitor (detected): biotinylated Rb/Hu Podo83 5 ug/mL
# [10] = target: T1, human podocalyxin; experiment: cross competition FACS, MDA-MB-231 cells; row antibody unlabelled 25 ug/mL first; competitor (detected): B-3G2.2 5 ug/mL
# [11] = target: T1, human podocalyxin; experiment: cross competition FACS, MDA-MB-231 cells; row antibody unlabelled 25 ug/mL first; competitor (detected): B-Ova 12 5 ug/mL (control)
# [12] = target: T1, human podocalyxin; experiment: cross competition FACS, MDA-MB-231 cells; row antibody unlabelled 25 ug/mL first; competitor (detected): B-mlgG1 5 ug/mL (control)
# [13] = target: T1, human podocalyxin; experiment: flow cytometry, well H01 (left column, cell type not labelled: MDA-MB-231 or MDA-MB-231/hPodo); vertical gate at FL4-H about 10^3.2, cutting the right edge of the control population; the gate differs from that of the Ab-1 panels
# [14] = target: T1, human podocalyxin; experiment: flow cytometry, control antibody, OVCAR3 cells
# [15] = target: T1, human podocalyxin; experiment: flow cytometry, control antibody, MCF7 cells
# [16] = target: T1, human podocalyxin; experiment: flow cytometry, control antibody, CaOV3 cells
# [17] = target: T1, human podocalyxin; experiment: flow cytometry, control antibody, 293 HEK cells
# [18] = target: T1, human podocalyxin; experiment: flow cytometry, control antibody, MDA-MB-231 cells
# [19] = target: T1, human podocalyxin; experiment: flow cytometry, control antibody, A172 cells
# [20] = target: T1, human podocalyxin; experiment: flow cytometry, well H03 (right column, cell type not labelled: MDA-MB-231 or MDA-MB-231/hPodo); vertical gate at FL4-H about 10^3.2; the gate differs from that of the Ab-1 panels
# [21] = target: T1, human podocalyxin; experiment: flow cytometry, control antibody, HUVEC cells
# [22] = target: T1, human podocalyxin; experiment: flow cytometry, control antibody, OVCAR10 cells
# [23] = target: T1, human podocalyxin; experiment: flow cytometry, control antibody, T47-D cells
# [24] = target: T1, human podocalyxin; experiment: flow cytometry, control antibody, SKOV3 cells
# [25] = target: T1, human podocalyxin; experiment: cross competition FACS, MDA-MB-231 cells; row antibody (isotype control) unlabelled 25 ug/mL first; competitor (detected): B-3G2.2 5 ug/mL
# [26] = target: T1, human podocalyxin; experiment: cross competition FACS, MDA-MB-231 cells; FACS Buffer row (no unlabelled antibody); B-mlgG1 5 ug/mL (control)
# [27] = target: T1, human podocalyxin; experiment: cross competition FACS, MDA-MB-231 cells; row antibody (isotype control) unlabelled 25 ug/mL first; competitor (detected): biotinylated Rb/Hu Podo83 5 ug/mL
# [28] = target: T1, human podocalyxin; experiment: cross competition FACS, MDA-MB-231 cells; row antibody (isotype control) unlabelled 25 ug/mL first; competitor (detected): B-mlgG1 5 ug/mL (control)
# [29] = target: T1, human podocalyxin; experiment: cross competition FACS, MDA-MB-231 cells; row antibody (isotype control) unlabelled 25 ug/mL first; competitor (detected): B-Ova 12 5 ug/mL (control)
Substance,FACS signal of the biotinylated antibody named under assay [9],FACS signal of the biotinylated antibody named under assay [10],FACS signal of the biotinylated antibody named under assay [11],FACS signal of the biotinylated antibody named under assay [12],Live cell GeoMean FL (geometric mean fluorescence units) [14],Live cell GeoMean FL (geometric mean fluorescence units) [15],Live cell GeoMean FL (geometric mean fluorescence units) [16],Live cell GeoMean FL (geometric mean fluorescence units) [17],Live cell GeoMean FL (geometric mean fluorescence units) [18],Live cell GeoMean FL (geometric mean fluorescence units) [19],Live cell GeoMean FL (geometric mean fluorescence units) [21],Live cell GeoMean FL (geometric mean fluorescence units) [22],Live cell GeoMean FL (geometric mean fluorescence units) [23],also measured
Rb IgG (antibody),–,–,–,–,–,–,–,–,–,–,–,–,–,flow cytometry fluorescence (name not given) [1]: 467; flow cytometry fluorescence (name not given) [2]: 438; flow cytometry fluorescence (name not given) [3]: 431; flow cytometry fluorescence (name not given) [4]: 617; flow cytometry fluorescence (name not given) [5]: 574; flow cytometry fluorescence (name not given) [6]: 645; flow cytometry fluorescence (name not given) [7]: 762; flow cytometry fluorescence (name not given) [8]: 660
3D3 (Santa Cruz Biotechnology sc23904) (antibody),135000,26400,450,419,–,–,–,–,–,–,–,–,–,–
Control Rb/HuIgG1 (antibody),–,–,–,–,629,657,767,446,477,644,489,653,667,Q2-LR % of gated cells (FL4-H above the gate) [13]: 17.2%; Q2-LR % of gated cells (FL4-H above the gate) [20]: 3.5%
MsIgG2a (antibody),–,–,–,–,708,1130,892,556,478,797,484,618,787,Live cell GeoMean FL (geometric mean fluorescence units) [24]: 485
MAB1658 (R&D Systems) (antibody),127000,26900,476,431,–,–,–,–,–,–,–,–,–,–
mlgG1 (antibody),–,–,–,–,–,–,–,–,–,–,–,–,–,FACS signal of the biotinylated antibody named under assay [25]: 26600; FACS signal of the biotinylated antibody [26]: 419; FACS signal of the biotinylated antibody named under assay [27]: 124000; FACS signal of the biotinylated antibody named under assay [28]: 414; FACS signal of the biotinylated antibody named under assay [29]: 458
